Measured values from patent US11466066B2, “Variants of human BMP7 protein” (ELI LILLY AND COMPANY, priority 2017, dated 2022).
Numbering of substitutions follows the chain as printed. Names may count otherwise. Marks after values point to notes of the source that are not given here.

Assays:
[1] = system: rat primary articular chondrocytes (RPACs); assay: Chondrogenesis assay (pellet culture); assay type: cell-based; conditions: 2 weeks in culture
Description: The effect of wild type human mature BMP7 and variants thereof may be evaluated for differentiation of chondrocytes in an in vitro model utilizing rat primary articular chondrocytes (RPACs). To obtain RPACs, articular cartilage may be isolated from 2-3 day old rats. The cartilage may be digested with 0.4% collagenase for 2 hours and then the resultant cells may be washed with phosphate buffered saline and subsequently cultured in media containing DMEM, 10% FBS and 1% penicillin/streptomycin in humidified air with 5% CO2 at 37° C.
To assess the chondrogenic differentiation, a pellet culture system may be used. Approximately 2×10^5 cells from passage 2-3 may be placed in 1.5 ml tubes and centrifuged at 500 g for 10 minutes. The pellets may be cultured at 37° C. with 5% CO2 in 500 μl of medium. […] The media may be replaced twice per week for 2 weeks. After 2 weeks in culture, the pellets may be harvested and macroscopic analysis was performed by stereomicroscopic procedures. The images may be analyzed and the pellet sizes may be calculated in a 2-dimensional image.

[2] = system: rat surgical fracture model; assay: Bone healing model (cortical defect); assay type: in vivo; conditions: day 35; for BMC: mean ± SEM; for % Increase From Vehicle Control: BMC
Excerpt: The effect of wild type human mature BMP7 and variants thereof may be evaluated on bone regeneration and repair or bone healing in a rat surgical fracture model. Animals may be ovariectomized at 6 months of age and allowed to lose bone for two months before fracture surgery. Cortical defect surgery may be performed essentially as previously described (Komatsu, et al., Endocrinology, 150:1570-1579, 2009). Briefly, the procedure involves incising the skin over the lateral femoral aspect and blunt dissection of the quadriceps to expose the distal femoral diaphysis. Cortical defects may be then generated through the anterior and posterior cortexes using a Dremel tool (Robert Bosch Tool Corp, Gerlingen, Germany) equipped with a 2 mm orthopedic drill bit (Zimmer Inc, Warsaw, Ind.). The muscles may be subsequently repositioned, and the skin may be closed with tissue adhesive. Groups of animals may be treated with various amounts of wild type human mature BMP7 or variants thereof prepared in sodium citrate buffer pH 3.0 and adsorbed to Helistat type-1 collagen sponges in a volume of 50 μl. The treatments may be administered locally at the site of defect during surgery and treated for 35 days. A control group may receive the vehicle containing the same constituents in collagen sponge without the therapeutic proteins. In vivo fracture repair and bone mineral content (BMC) may be evaluated by quantitative computed tomography (QCT) using a GE Locus Ultra CT scanner (GE Healthcare, London, Ontario, Canada) as described previously (Komatsu et al., 2008).

[3] = system: meniscal tear (MT) induced rat model of cartilage degeneration; assay: Meniscal tear rat model of cartilage degeneration; assay type: in vivo
Excerpt: The effect of human mature BMP7 protein variant (SEQ ID NO: 8) may be evaluated using an osteoarthritic (OA) pain in the meniscal tear (MT) induced rat model of cartilage degeneration. Male Lewis rats (approximately 25 weeks of age) may be used for such a study. Briefly described, rats may be anesthetized with 3% isoflurane prior to surgery. The right knee may be flexed and a transverse medial incision is made along the proximal antero-medial aspect of the tibia exposing the medial […] ligament. The […] ligament and the joint capsule may be incised simultaneously freeing the tibial attachments of the medial meniscus. Approximately 3 mm of the meniscus may be freed from its attachment to the margin of the tibial plateau and the meniscus may be transected to simulate a complete tear. The incision may be closed with surgical glue.
The animals may be treated with wild type human mature BMP7 at a dose of 350 ng/knee or human mature BMP7 protein variant F9 (SEQ ID NO: 8) at two doses of 49 ng or 245 ng/knee in 50 μl phosphate buffered saline (PBS), pH 7.4. The treatment may be initiated 3 weeks after MT surgery and continued for […]. Animals may be administered weekly intra-articular injections of wild type human mature BMP7 or human mature BMP7 protein variant F9 (SEQ ID NO: 8) or vehicle at various doses for 5 weeks into the operated knee. Pain measurements may be made by incapacitance testing on days 18 (baseline), 25, 31, 42 and 53 post MT surgery using an incapacitance tester (Columbus Instruments International, Columbus, Ohio). Changes in hind paw weight distribution between the osteoarthritic (right) and contralateral control (left) limb may be utilized as an index of joint discomfort (measure of pain) in the osteoarthritic knee. Results may be presented as the difference in weight bearing between the contralateral control (left) and the osteoarthritic (right).

[4] = system: female CB17SC-M SCID mice; assay: Ectopic bone formation model; assay type: in vivo; conditions: 3 μg/100 μl subcutaneous; CT scan on Day 13
Description: Ectopic bone formation (EBF) may be measured in female CB17SC-M SCID mice upon subcutaneous administration of certain human BMP7 protein variants of the present invention compared to wild type human mature BMP7.
Briefly described, the mice may be anesthetized with 3% isoflurane and are injected with 3 μg/100 μl of the human BMP7 protein variant, wild type human mature BMP7 protein or a vehicle control on the back left flank. The back right flank of each mouse may serve as a control (no injection). Vehicle (pH 4.5): 0.5% Sucrose, 2.5% Glycine, 5 mM L-Glutamic Acid, 5 mM NaCl, 0.01% polysorbate 80, and, 0.1% BSA.
EBF may be measured by a CT scan on Day 13 after injection of the human BMP7 protein variant or wild type human mature BMP7 protein.

[5] = 16.5 μg on collagen sponge at defect site

B1: Human mature BMP7 protein variant F9 (SEQ ID NO: 8): homodimer wherein each monomeric subunit has SEQ ID NO: 8 (Y65G/I86L/F93V/N110G/Y128W), disulfide linked (protein)
chain: STGSKQRSQNRSKTPKNQEALRMANVAENSSSDQRQACKKHELYVSFRDLGWQDWIIAPEGYAAGYCEGECAFPLNSYMNATNHALVQTLVHVINPETVPKPCCAPTQLGAISVLYFDDSSNVILKKWRNMVVRACGCH
modifications: homodimer, disulfide linked
For B1, the “Pellet Size” value ([1]; Treatment 0.014 nM) was 0.67 ± 0.16 mm^2, the “Pellet Size” value ([1]; Treatment 0.14 nM) was 1.56 ± 0.46^a mm^2 and the “Pellet Size” value ([1]; Treatment 1.4 nM) was 2.61 ± 0.18^a mm^2. For the same molecule, the BMC ([2]; 2.0 μg on collagen sponge at defect site) was 16.19 ± 1.09 mg, the BMC [2, 5] was 18.13 ± 2.29^a mg and the cortical area ([2]; 16.5 μg) was “significant increase”. The “% Increase From Vehicle Control” value ([2]; 2.0 μg) was 114%, the “% Increase From Vehicle Control” value ([2]; 16.5 μg) was 128% and the “Difference in hind paw weight bearing” value ([3]; Treatment C, 49 ng/knee weekly intra-articular, Baseline (day 18 post MT surgery)) was 52.48 ± 2.11 g. For the same molecule, the “Difference in hind paw weight bearing” value ([3]; Treatment C, 49 ng, Day 25) was 49.96 ± 0.66 g, the “Difference in hind paw weight bearing” value ([3]; Treatment C, 49 ng, Day 31) was 49.52 ± 1.10^b g and the “Difference in hind paw weight bearing” value ([3]; Treatment C, 49 ng, Day 42) was 44.8 ± 3.04^b g. The “Difference in hind paw weight bearing” value ([3]; Treatment C, 49 ng, Day 53) was 45.70 ± 2.77 g, the “Difference in hind paw weight bearing” value ([3]; Treatment D, 245 ng/knee weekly intra-articular, Baseline (day 18 post MT surgery)) was 52.02 ± 2.19 g and the “Difference in hind paw weight bearing” value ([3]; Treatment D, 245 ng, Day 25) was 49.77 ± 1.00 g. The “Difference in hind paw weight bearing” value ([3]; Treatment D, 245 ng, Day 31) was 49.54 ± 2.77^b g, the “Difference in hind paw weight bearing” value ([3]; Treatment D, 245 ng, Day 42) was 42.37 ± 1.28^b g and the “Difference in hind paw weight bearing” value ([3]; Treatment D, 245 ng, Day 53) was 38.68 ± 1.68^b g. The “Ectopic Bone Formation Volume” value [4] was 7 mm^3.

B2: Wild type human mature BMP7 (SEQ ID NO: 2): dimer of two glycosylated, 139 amino acid disulfide-linked proteins of about 35 kDa, SEQ ID NO: 2 (protein, listed as Homo sapiens)
chain: B1 chain with G65Y, L86I, V93F, G110N, W128Y
modifications: disulfide-linked glycosylated homodimer
With B2 the “Pellet Size” value ([1]; Treatment 0.02 nM) was 0.64 ± 0.15 mm^2, the “Pellet Size” value ([1]; Treatment 0.2 nM) was 0.70 ± 0.03 mm^2 and the “Pellet Size” value ([1]; Treatment 2 nM) was 0.83 ± 0.13 mm^2. The BMC [2, 5] was 16.25 ± 1.60 mg, the “% Increase From Vehicle Control” value ([2]; 16.5 μg) was 115% and the “Difference in hind paw weight bearing” value ([3]; Treatment B, 350 ng/knee weekly intra-articular, Baseline (day 18 post MT surgery)) was 52.33 ± 2.45 g. For the same molecule, the “Difference in hind paw weight bearing” value ([3]; Treatment B, 350 ng, Day 25) was 50.76 ± 1.09 g, the “Difference in hind paw weight bearing” value ([3]; Treatment B, 350 ng, Day 31) was 49.97 ± 1.10 g and the “Difference in hind paw weight bearing” value ([3]; Treatment B, 350 ng, Day 42) was 46.81 ± 1.34^b g. For the same molecule, the “Difference in hind paw weight bearing” value ([3]; Treatment B, 350 ng, Day 53) was 47.77 ± 1.78 g and the “Ectopic Bone Formation Volume” value [4] was 78 mm^3.
